Results reported in patent US20230050846A1, “TREATMENT OF HEPATIC AND CARDIOVASCULAR DISORDERS” (LIFESEARCH, priority 2019, published 2023).

Biological target: cell surface F1Fo-ATPase (human)
Experiment: cell-based or functional assay

HDL endocytosis by HepG2 cells (HDL-Alexa568 uptake), apoA-I 10 µg/mL, versus non-stimulated cells: 45%
Substance: apoA-I purified from human plasma (from UniProt P02647 25-267) (ligand)
